Laboratory results as given in patent US6187552A, “Method for identifying inhibitors of JAK2/cytokine receptor binding” (Pharmacia & Upjohn Company, priority 1998, dated 2001).

Experiments:
[1] = system: βc/JAK2 binding; experiment: Effect of blocking agents, detergents and DTT on the SPA (signal, background); set-up: species or system human
Procedure: (§1) Triplicate reactions were done for each data point. The buffer used in all the assays was 35 mM sodium phosphate, 150 mM NaCl, pH 8.0, 10% glycerol. Biotinylated peptides were allowed to bind to streptavidin-coated SPA beads (Amersham Life Sciences, Arlington Heights, Ill., catalog # RPNQ0006) with either less than saturating peptide or excess peptide. […] Under less than saturating conditions, beads and 40 pmole peptide were added to the assay plate well and incubated for one hour with gentle shaking on a Titer plate shaker (Lab-Line Instruments, Inc., Melrose Park, Ill.) at 600 rpm and not washed. […] The plates were then read on a MicroBeta (Wallac) set to read scintillation due to tritium.

[2] = biological target: NJAK2 (N-terminal portion of JAK2) (Homo sapiens, UniProt O60674); experiment: SPA: binding of 3H-NJAK2 (N-terminal JAK2) to βc peptides on streptavidin-coated beads; details: less than saturating peptide, 40 pmole per reaction, FIG. 12B
Chain of NJAK2 (N-terminal portion of JAK2) (O60674 1-294 S277G): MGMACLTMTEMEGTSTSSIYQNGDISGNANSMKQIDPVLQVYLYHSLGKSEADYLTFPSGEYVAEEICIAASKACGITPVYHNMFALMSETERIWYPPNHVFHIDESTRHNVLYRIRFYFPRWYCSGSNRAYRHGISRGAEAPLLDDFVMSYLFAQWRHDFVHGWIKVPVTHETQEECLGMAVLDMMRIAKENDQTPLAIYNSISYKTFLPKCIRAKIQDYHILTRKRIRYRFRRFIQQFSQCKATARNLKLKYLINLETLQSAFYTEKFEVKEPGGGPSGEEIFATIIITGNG
Procedure: (§2) Three different labeling reactions were done using ^3 H-N-succinimidyl propionate (^3 H-NSP, Amersham Life Sciences, Arlington Heights, Ill.). One reaction was done using 0.5 mg of purified JAK2 in 0.1 M borate buffer, pH 8.5, with a reaction volume of 150 μl and an incubation time of one hour on ice with dried 1 mCi of ^3 H-NSP (toluene was removed using a stream of nitrogen). […] Another reaction was done using the buffer 0.1 M sodium phosphate, pH 8.0, and a similar volume as before. One milligram of JAK2 in 1.2 ml of phosphate buffer was incubated for three hours on ice. […] A third reaction was done using 2.5 mg of purified JAK2 in 0.1 m sodium phosphate, pH 8.0, and 2.5 ml volume. It was incubated with 5 mCi of dried ^3 H-NSP on ice for 2 hours. […] All three products were separated from unincorporated label using PD-10 columns (Pharmacia Biotech, Uppsala, Sweden) pre-equilibrated with 20 mM Tris, pH 8.0, 0.15 M NaCl.
as §1
(§3) Either ^3 H-JAK2 or ^3 H-NJAK2 was added to the wells and, after incubation, the signals measured. […] A competition reaction was also done by adding 5 to 10-fold excess unlabeled JAK2 in those reactions.

[3] = biological target: T1, JAK2 (Homo sapiens, UniProt O60674); experiment: ELISA binding of JAK2 to immobilized βc peptides; set-up: Y918N clone error corrected to Tyr; details: for binding of JAK2 (ELISA): biotinylated peptides on streptavidin plate; for binding of JAK2 (ELISA) / saturation of JAK2 binding at 0.4 μM peptide (ELISA): FIG. 24
T1 sequence (O60674 3-1132): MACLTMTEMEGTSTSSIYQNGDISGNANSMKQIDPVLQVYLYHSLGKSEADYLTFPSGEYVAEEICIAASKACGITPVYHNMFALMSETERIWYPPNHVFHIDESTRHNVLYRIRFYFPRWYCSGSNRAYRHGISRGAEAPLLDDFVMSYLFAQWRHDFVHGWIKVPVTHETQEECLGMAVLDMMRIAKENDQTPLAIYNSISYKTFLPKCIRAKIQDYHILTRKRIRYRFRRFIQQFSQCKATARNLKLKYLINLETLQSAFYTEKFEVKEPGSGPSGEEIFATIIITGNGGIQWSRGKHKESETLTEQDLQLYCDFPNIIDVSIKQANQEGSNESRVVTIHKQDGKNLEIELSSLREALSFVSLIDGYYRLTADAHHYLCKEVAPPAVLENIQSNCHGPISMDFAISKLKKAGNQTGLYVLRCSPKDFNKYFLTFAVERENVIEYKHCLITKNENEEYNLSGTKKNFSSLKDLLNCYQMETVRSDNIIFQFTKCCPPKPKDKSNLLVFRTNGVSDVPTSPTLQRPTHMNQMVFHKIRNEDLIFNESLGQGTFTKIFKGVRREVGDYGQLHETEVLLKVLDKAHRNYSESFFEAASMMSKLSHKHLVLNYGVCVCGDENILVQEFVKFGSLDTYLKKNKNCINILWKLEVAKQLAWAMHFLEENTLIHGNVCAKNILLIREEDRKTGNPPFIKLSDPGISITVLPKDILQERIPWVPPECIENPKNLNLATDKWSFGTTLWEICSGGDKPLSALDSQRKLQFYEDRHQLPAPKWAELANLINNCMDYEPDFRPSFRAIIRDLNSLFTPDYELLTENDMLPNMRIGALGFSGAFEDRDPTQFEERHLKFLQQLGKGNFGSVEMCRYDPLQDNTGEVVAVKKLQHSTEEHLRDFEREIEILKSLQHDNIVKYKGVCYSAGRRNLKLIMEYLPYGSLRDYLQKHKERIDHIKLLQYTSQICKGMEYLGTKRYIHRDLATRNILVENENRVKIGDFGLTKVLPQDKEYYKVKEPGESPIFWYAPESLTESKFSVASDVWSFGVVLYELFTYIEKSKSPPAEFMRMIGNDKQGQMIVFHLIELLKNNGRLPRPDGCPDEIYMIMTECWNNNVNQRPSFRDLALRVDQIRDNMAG
Procedure: βc peptides corresponding to the proposed JAK2 binding domain (Table 1) were serially diluted and bound 16 hours at room temperature to streptavidin coated 96-well plates (Boehringer-Mannheim, Indianapolis, Ind.) and blocked at 37° with 1% fetal bovine serum in PBS. JAK2 protein was serially diluted on the plate and allowed to bind for 1 hour at room temperature. Plates were washed between incubations with ELISA wash (PBS with 0.04% TWEEN 20). Detection was via anti-FLAG antibody (10 μg/ml, Kodak, New Haven, Conn.) followed by anti-mouse Ig conjugated to peroxidase (1:5000 dilution, Boehringer Mannheim) and 1 mg/ml 2,2'-azinobis(3-ethylbenzthiazolinesulfonic acid) (Sigma), 0.003% H2 O2, 28 mM citric acid, 44 mM Na2 HPO4.
The ELISA assay worked best when the biotinylated βc peptides were immobilized on a streptavidin 96-well plate and the JAK2 was allowed to bind. A dual titration of βc peptides vs. JAK2 was performed (FIG. 24). Peptide 1 [SEQ ID NO:11] (FIG. 24 A) and peptide 2 [SEQ ID NO:12] […] Because 0.4 μM peptide was calculated to saturate the number of biotin binding sites in each well, it was expected that the amount of JAK2 binding should saturate at this quantity of peptide. […] (FIGS. 24 C and D) but peptides 5 and 6 [SEQ ID NOS:15 and 16]

[4] = biological target: T1, JAK2; experiment: SPA competition: soluble peptide/streptavidin against peptide 4-coated SPA beads for binding 3H-JAK2; set-up: Y918N clone error corrected to Tyr
Source text: FIGS. 20 A and B illustrate a test of the ability of streptavidin-peptide 4 complexes to compete for binding of 3H-JAK2 to peptide 4-coated SPA beads. For A, #0 is a beads only control. In all reactions with peptide bound to beads, excess peptide 4 [SEQ ID NO:14] was bound to beads before adding soluble samples. The reaction in #1 is peptide 4 [SEQ ID NO:14] bound to beads only, no added peptide 4 [SEQ ID NO:14] or streptavidin. #2 contained soluble peptide 4/streptavidin at a ratio of 1:1. #3 contained soluble peptide 4/streptavidin at a ratio of 4:1. #4 contained 20 μM peptide 4 added as soluble peptide 4. #5 contained 20 μM streptavidin. […] For B, 0 is a beads only control. In all reactions with peptide bound to beads, excess peptide 4 was bound to beads in the presence of 1 mg/ml κ-casein (as described in Materials and Methods of Example 8) before adding soluble samples. The reaction in #1 is peptide 4 bound to beads only, no added peptide 4 or streptavidin. #2 contained peptide 1/streptavidin at a ratio of 4:1 and #3 contained peptide 4/streptavidin at a ratio of 4:1.
The assay was set up in 96-well plates (Wallac, catalog # 1450-401), Turku, Finland, using a total assay volume of 200, μl/well. Triplicate reactions were done for each data point. The buffer used in all the assays was 35 mM sodium phosphate, 150 mM NaCl, pH 8.0, 10% glycerol. Biotinylated peptides were allowed to bind to streptavidin-coated SPA beads (Amersham Life Sciences, Arlington Heights, Ill., catalog # RPNQ0006) with either less than saturating peptide or excess peptide. For 400 μg SPA beads used per reaction, there was the capacity to bind 49 pmole of biotin (given the binding capacity of 121 pmole biotin/mg bead). Under less than saturating conditions, beads and 40 pmole peptide were added to the assay plate well and incubated for one hour with gentle shaking on a Titer plate shaker (Lab-Line Instruments, Inc., Melrose Park, Ill.) at 600 rpm and not washed. Under conditions of excess peptide, beads and peptide (80 pmole of peptide per 400 μg of bead) were mixed in batch with or without 1 mg/ml K-casein added as described in Results and Discussion, incubated for one hour with rotation, washed three times with buffer and aliquotted into wells. ^3 H-JAK2 or ^3 H-NJAK2 and any other components to be tested were added and the reactions were mixed and incubated for one hour in the dark at room temperature. The plates were then read on a MicroBeta (Wallac) set to read scintillation due to tritium.
The ability of excess peptide 4 [SEQ ID NO: 14] to compete for binding of JAK2 was tested. Biotinylated peptide 4 was bound to streptavidin in solution to mimic the conditions of the peptide 4 bound to the beads. It was used at a ratio of 1:1 (peptide 4: streptavidin) and at a ratio of 4:1 to see whether having multiple peptides on one streptavidin molecule might do a better job of binding JAK2 and therefore of competing. […] This could be due to the free streptavidin pulling some of the peptide 4 [SEQ ID NO: 14] off the bead. […] Another SPA was done using peptide 4 [SEQ ID NO:14] or peptide 1 [SEQ ID NO:11] bound to streptavidin at a ratio of 4:1. […] The results are shown in panel B of FIG. 20.

[5] = biological target: T1, JAK2; experiment: SPA: binding of 3H-JAK2 to βc peptides on streptavidin-coated beads; set-up: NJAK2 = N-terminal 294 residues; details: for activity profile in binding 3H-JAK2 (signal): less than saturating peptide, 40 pmole per reaction, FIG. 12A; for overall signals and signal-to-noise ratios, peptide and labeled JAK2 mixed prior to adding beads / activity profile, peptide and labeled JAK2 mixed prior to adding beads: mixed one hour before beads, FIG. 13; for overall signals and signal-to-noise ratios, peptide and labeled JAK2 mixed prior to adding beads: versus peptide bound to bead first; for signal: κ-casein included throughout the assay; for activity of C-terminal deletion peptide in the SPA: excess peptide, κ-casein 1 mg/ml
Procedure: Cells were lysed by dounce homogenization (20 strokes) in 1X phosphate buffered saline (PBS), pH 7.5 at 4 C. […] For some experiments, the JAK2 protein (0.15 mg/ml), aliquoted into 7 equivalent tubes, was then subjected to ultracentrifugation in an Airfuge using an A-110 rotor at an average of 164,000×g for a period of 6 hours at ambient temperature. At zero time, and at each subsequent hour thereafter, a tube of JAK2 was removed for analyses (ELISA, SDS polyacrylamide gel electrophoresis, and Western blotting).
as §2, §1, §3

## O[C@H](CS)[C@H](O)CS (racemic) [dithiothreitol]
[1]; 0.1 or 1 mM DTT with Brij 35 0.0025%, FIG. 19B
  additional effect of dithiothreitol: no obvious additional effect

## EKIPNPSKSHLFQNGSAELWP [peptide 1, βc peptide, N-terminal truncation]
[2]
  activity profile in binding 3H-NJAK2 (signal): gave no signal
[3]
  binding of JAK2 (ELISA): no binding activity
[4]; peptide/streptavidin 4:1, beads with 1 mg/ml κ-casein, FIG. 20B
  competition for binding of JAK2: decrease in signal
[5]
  activity profile in binding 3H-JAK2 (signal): gave no signal
  overall signals and signal-to-noise ratios, peptide and labeled JAK2 mixed prior to adding beads: lower overall signals and signal-to-noise ratios
  activity profile, peptide and labeled JAK2 mixed prior to adding beads: same activity profile
  signal: very little signal

## FCGIYGYRLRRKWEEKIPNPSKSHLFQNGSAELWP [peptide 5, βc peptide, N-terminal truncation]
[2]
  activity profile in binding 3H-NJAK2 (signal): peptide 4>peptide 3>peptide 5>peptide 6>peptides 1 and 2
[3]
  saturation of JAK2 binding at 0.4 μM peptide (ELISA): did not show saturation
[5]
  activity profile in binding 3H-JAK2 (signal): peptide 4>peptide 3>peptide 5>peptide 6>peptides 1 and 2

## GIYGYRLRRKWEE [CTD-5, C-terminal deletion of peptide 4]
[5]; 10 nM labeled JAK2, FIG. 21B
  activity of C-terminal deletion peptide in the SPA: as active as peptide 4

## GIYGYRLRRKWEEKIPN [CTD-4, C-terminal deletion of peptide 4]
[5]; 32.5 nM labeled JAK2, FIG. 21A
  activity of C-terminal deletion peptide in the SPA: slight decrease in the activity

## LALRFCGIYGYRLRRKWEEKIPNPSKSHLFQNGSAELWP [peptide 6, βc peptide]
[2]
  activity profile in binding 3H-NJAK2 (signal): peptide 4>peptide 3>peptide 5>peptide 6>peptides 1 and 2
[3]
  saturation of JAK2 binding at 0.4 μM peptide (ELISA): did not show saturation
[5]
  activity profile in binding 3H-JAK2 (signal): peptide 4>peptide 3>peptide 5>peptide 6>peptides 1 and 2
  overall signals and signal-to-noise ratios, peptide and labeled JAK2 mixed prior to adding beads: lower overall signals and signal-to-noise ratios
  activity profile, peptide and labeled JAK2 mixed prior to adding beads: same activity profile
  signal: very little signal

## RKWEEKIPNPSKSHLFQNGSAELWP [peptide 2, βc peptide, N-terminal truncation]
[2]
  activity profile in binding 3H-NJAK2 (signal): gave no signal
[3]
  binding of JAK2 (ELISA): no binding activity
[5]
  activity profile in binding 3H-JAK2 (signal): gave no signal

## YRLRRKWEEKIPNPSKSHLFQNGSAELWP [peptide 3, βc peptide, N-terminal truncation]
[2]
  activity profile in binding 3H-NJAK2 (signal): peptide 4>peptide 3>peptide 5>peptide 6>peptides 1 and 2
[3]
  suitability for the ELISA: appear optimal
[5]
  suitability in the SPA: two most optimal
  activity profile in binding 3H-JAK2 (signal): peptide 4>peptide 3>peptide 5>peptide 6>peptides 1 and 2

## bovine serum albumin [BSA]
[1]; BSA 0.1 or 0.5 mg/ml, FIG. 16
  effect on background: no effect
  effect on signal: slight positive effect

## streptavidin [reference compound]
[4]; 20 μM streptavidin, FIG. 20A
  signal with streptavidin alone: decreases the signal to a greater extent than streptavidin with peptide 4

## κ-casein
[1]; κ-casein during binding of excess peptide to beads, washed away, FIG. 15
  effect on signal and background: decreases both signal and background
